Assays:
[1] = target: human MSLN protein endogenously expressed on tumor cells (Hela, OVCAR3) (human) (UniProt Q13421); test: FACS, Hela cells
[2] = target: human MSLN protein endogenously expressed on tumor cells (Hela, OVCAR3) (human) (UniProt Q13421); test: FACS, OVCAR3 cells
[3] = target: human MSLN-R3-rFc protein (human) (UniProt Q13421); test: ELISA, antibody 4 nM
[4] = target: human MSLN-R3-3 polypeptide (purchased from GL Biochem, Cat. No. 406676) (human); test: ELISA, antibody 1 nM
[5] = target: human MSLN-R3-rFc protein (human) (UniProt Q13421); test: ELISA, antibody 1 nM
[6] = target: human MSLN-R3-rFc protein (human) (UniProt Q13421); test: ELISA, antibody 100 nM
[7] = target: human MSLN full-length protein, recombinant, on CHO-K1 or HEK293T cells (human) (UniProt Q13421); test: FACS, CHO-K1-hMSLN-2C8 cells
human MSLN full-length protein, recombinant, on CHO-K1 or HEK293T cells (human), sequence (Q13421 other isoform, or with tags, fused parts or gaps limits assumed): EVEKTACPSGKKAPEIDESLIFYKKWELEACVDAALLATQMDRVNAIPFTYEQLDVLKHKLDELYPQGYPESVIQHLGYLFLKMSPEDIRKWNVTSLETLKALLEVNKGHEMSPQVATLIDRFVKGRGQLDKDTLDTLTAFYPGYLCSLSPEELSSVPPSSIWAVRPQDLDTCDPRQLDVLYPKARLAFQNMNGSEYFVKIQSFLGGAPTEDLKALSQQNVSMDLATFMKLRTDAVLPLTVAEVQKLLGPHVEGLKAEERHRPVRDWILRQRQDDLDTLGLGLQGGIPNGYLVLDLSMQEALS

[8] = target: monkey MSLN full-length protein on HEK293T cells (monkey); test: FACS, HEK293T-monkey MSLN cells
[9] = target: human MSLN protein endogenously expressed on tumor cells (Hela, OVCAR3) (human) (UniProt Q13421); test: FACS, OVCAR3 cells, antibody 2 nM
[10] = target: human MSLN protein endogenously expressed on tumor cells (Hela, OVCAR3) (human) (UniProt Q13421); test: FACS, OVCAR3 cells, antibody 20 nM
[11] = target: human MSLN protein endogenously expressed on tumor cells (Hela, OVCAR3) (human) (UniProt Q13421); test: FACS, OVCAR3 cells, antibody 0.8 nM
[12] = target: human MSLN full-length protein, recombinant, on CHO-K1 or HEK293T cells (human) (UniProt Q13421); test: FACS, HEK293T-hMSLN-B8 cells, antibody 20 nM
[13] = target: human MSLN full-length protein, recombinant, on CHO-K1 or HEK293T cells (human) (UniProt Q13421); test: FACS, HEK293T-hMSLN-B8 cells, antibody 0.2 nM
[14] = target: human MSLN full-length protein on transfected cells (CHO-K1-hMSLN clones 2C8, 2D11, 2C5; HEK293T-hMSLN clones B8, 2A4, 2A7) (human) (UniProt Q13421); test: FACS, CHO-K1-hMSLN-2C8 cells, antibody 0.16 nM
human MSLN full-length protein on transfected cells (CHO-K1-hMSLN clones 2C8, 2D11, 2C5; HEK293T-hMSLN clones B8, 2A4, 2A7) (human), sequence (Q13421 other isoform, or with tags, fused parts or gaps limits assumed): as above

[15] = target: monkey MSLN full-length protein on HEK293T cells (monkey); test: FACS, HEK293T-monkey-MSLN cells, antibody 4 nM
[16] = target: human MSLN full-length protein on transfected cells (CHO-K1-hMSLN clones 2C8, 2D11, 2C5; HEK293T-hMSLN clones B8, 2A4, 2A7) (human) (UniProt Q13421); test: FACS, CHO-K1-hMSLN-2C8 cells, antibody 0.032 nM
[17] = target: monkey MSLN full-length protein on HEK293T cells (monkey); test: FACS, HEK293T-monkey-MSLN cells, antibody 0.8 nM
[18] = target: human MSLN full-length protein on transfected cells (CHO-K1-hMSLN clones 2C8, 2D11, 2C5; HEK293T-hMSLN clones B8, 2A4, 2A7) (human) (UniProt Q13421); test: FACS, CHO-K1-hMSLN-2C8 cells, antibody 0.00128 nM
[19] = target: monkey MSLN full-length protein on HEK293T cells (monkey); test: FACS, HEK293T-monkey-MSLN cells, antibody 0.16 nM
[20] = target: monkey MSLN full-length protein on HEK293T cells (monkey); test: FACS, HEK293T-monkey-MSLN cells, antibody 0.0064 nM
[21] = target: human MSLN full-length protein, recombinant, on CHO-K1 or HEK293T cells (human) (UniProt Q13421); test: competitive FACS on CHO-K1-human MSLN-2C8 cells vs Biotin-Tab142; competitor at 4 nM
[22] = target: human MSLN full-length protein, recombinant, on CHO-K1 or HEK293T cells (human) (UniProt Q13421); test: competitive FACS on CHO-K1-human MSLN-2C8 cells vs Biotin-Tab131; competitor at 40 nM
[23] = target: human MSLN full-length protein, recombinant, on CHO-K1 or HEK293T cells (human) (UniProt Q13421); test: competitive FACS on CHO-K1-human MSLN-2C8 cells vs Biotin-Tab131; competitor at 200 nM
[24] = target: human MSLN full-length protein, recombinant, on CHO-K1 or HEK293T cells (human) (UniProt Q13421); test: competitive FACS on CHO-K1-human MSLN-2C8 cells vs Biotin-Tab142; competitor at 0.16 nM
[25] = target: human MSLN full-length protein, recombinant, on CHO-K1 or HEK293T cells (human) (UniProt Q13421); test: competitive FACS on CHO-K1-human MSLN-2C8 cells vs Biotin-Tab142; competitor at 0.032 nM
[26] = target: human MSLN full-length protein, recombinant, on CHO-K1 or HEK293T cells (human) (UniProt Q13421); test: competitive FACS on CHO-K1-human MSLN-2C8 cells vs Biotin-Tab142; competitor at 0.064 nM
[27] = target: human MSLN full-length protein, recombinant, on CHO-K1 or HEK293T cells (human) (UniProt Q13421); test: competitive FACS on CHO-K1-human MSLN-2C8 cells vs Biotin-Tab142; competitor at 0.0064 nM
[28] = target: human MSLN full-length protein, recombinant, on CHO-K1 or HEK293T cells (human) (UniProt Q13421); test: competitive FACS on CHO-K1-human MSLN-2C8 cells vs Biotin-Tab142; competitor at 0.0128 nM
[29] = target: human MSLN full-length protein, recombinant, on CHO-K1 or HEK293T cells (human) (UniProt Q13421); test: competitive FACS on CHO-K1-human MSLN-2C8 cells vs Biotin-Tab131; competitor at 0.0128 nM

human MSLN protein endogenously expressed on tumor cells (Hela, OVCAR3) (human), sequence (Q13421 other isoform, or with tags, fused parts or gaps): as the sequence (Q13421 other isoform, or with tags, fused parts or gaps limits assumed) above, with P14R counted along it
human MSLN-R3-3 polypeptide (purchased from GL Biochem, Cat. No. 406676) (human), sequence (peptide, as listed by the source): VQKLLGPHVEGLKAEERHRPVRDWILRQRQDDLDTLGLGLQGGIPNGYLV

For hIgG1 (antibody), the Max MFI [1] was 75, the Max MFI [2] was 147 and the OD450 nm [3] was 0.15. The OD450 nm [4] was 0.06, the OD450 nm [5] was 0.09 and the OD450 nm [6] was 0.21. It also gave a Max MFI [7] of 80, a Max MFI [8] of 104 and an MFI [9] of 255. For the same substance, the FACS signal (MFI) [10] was 78, the MFI [10] was 329 and the FACS signal (MFI) [11] was 76. It also gave an MFI [12] of 68, an MFI [13] of 65 and an FACS signal (MFI) [14] of 59. It also gave an FACS signal (MFI) [15] of 85, an FACS signal (MFI) [16] of 59 and an FACS signal (MFI) [17] of 87. The FACS signal (MFI) [18] was 116, the FACS signal (MFI) [19] was 85 and the FACS signal (MFI) [20] was 85. It also gave an MFI of Biotin-Tab142 [21] of 43100, an MFI of Biotin-Tab131 [22] of 12500 and an MFI of Biotin-Tab131 [23] of 12900. The MFI of Biotin-Tab142 [24] was 43600, the MFI of Biotin-Tab142 [25] was 43700 and the MFI of Biotin-Tab142 [26] was 23600. It also gave an MFI of Biotin-Tab142 [27] of 43700, an MFI of Biotin-Tab142 [28] of 24100 and an MFI of Biotin-Tab131 [29] of 12600.

From patent US20240124563A1
